Measured values as given in paper PMC11139201, “RsaL is a self‐regulatory switch that controls alternative biosynthesis of two AHL‐type quorum sensing signals in Pseudomonas aeruginosa PA1201”.
Substitutions are numbered along the chain they refer to.

B1: PRO-II (dsDNA)
DNA 1: AAATGAGATAGATTTCGGTGAACCCGGACCCTTGCTAGGCTCGAAGAAACGTCCGAAAAGATCAGAGCAATGGCTTCACACGAG
DNA 2: CTCGTGTGAAGCCATTGCTCTGATCTTTTCGGACGTTTCTTCGAGCCTAGCAAGGGTCCGGGTTCACCGAAATCTATCTCATTT
B2: PRO-II-p (dsDNA)
DNA 1: B1 DNA 1 with A12G, T13C, T14C, T15C
DNA 2: B1 DNA 2 with A70G, A71G, A72G, T73C

Target: RsaL (Pseudomonas aeruginosa PA1201, UniProt Q9X7H4 1-80)
Assay: EMSA; EMSA: 10 mM Tris-HCl pH 8.0, 1 mM EDTA, 5 mM MgCl2, 50 mM KCl, 2.5% glycerol, 30 ug/ml poly(dI-dC), 0.05% NP-40, room temperature 20 min; footprint: 100 ng probe in 40 ul, 30 min room temperature, DNase I 1 min 25 C
Settings: protein: recombinant, tags: His (pET28a), chain copies: 2

Row | Binder | binding result (label: Cy5) | binding result
1 | B1 | binds | 
2 | B2 |  | no binding
